Target: OmpC porin purified from Salmonella typhi (Salmonella enterica subsp. enterica serovar Typhi)
Assay: phage display panning on OmpC; frequency among 8 sequenced binding phage

| Frequency (fraction of sequenced phage clones) | Substance |
| --- | --- |
| 0.125 | OmpC affinity peptide TATYLLD |
| 0.125 | OmpC affinity peptide SLSLIQT |
